In the experiment the target is T1, human NT5E expressed on MDA-MB-231 cells (human) (UniProt P21589).
T1 sequence (looked up): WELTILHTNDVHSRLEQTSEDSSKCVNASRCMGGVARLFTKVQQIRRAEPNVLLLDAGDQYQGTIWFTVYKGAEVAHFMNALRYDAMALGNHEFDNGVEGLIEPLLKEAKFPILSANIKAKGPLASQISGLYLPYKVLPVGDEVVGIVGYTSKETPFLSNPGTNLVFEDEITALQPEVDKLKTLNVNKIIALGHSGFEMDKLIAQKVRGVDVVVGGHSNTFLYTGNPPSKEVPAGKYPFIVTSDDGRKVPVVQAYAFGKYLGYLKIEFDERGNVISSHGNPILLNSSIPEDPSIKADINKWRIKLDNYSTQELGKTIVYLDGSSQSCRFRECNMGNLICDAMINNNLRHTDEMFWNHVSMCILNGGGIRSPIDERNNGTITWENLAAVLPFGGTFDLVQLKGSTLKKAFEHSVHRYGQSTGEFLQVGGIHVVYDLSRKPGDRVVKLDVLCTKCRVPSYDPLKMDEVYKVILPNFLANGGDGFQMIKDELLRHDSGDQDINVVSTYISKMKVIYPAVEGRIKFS
The experiment in a line: cell-based or functional assay.

The text below walks through data of patent US20240199757A1.

Regarding BMS986179 IgG (antibody), the IC50 of NT5E activity on MDA-MB-231 cells, no ATP worked out at 0.6 nM; the IC50 of NT5E activity on MDA-MB-231 cells, with ATP worked out at 1.1 nM; the maximal inhibition of NT5E on MDA-MB-231 cells worked out at 70%.
